{
  "source": "patent US20250109193A1",
  "about": "(FLAGSHIP PIONEERING INNOVATIONS VI, published 2025)",
  "binders": {"B1": {"name": "Reference Antibody (antibody, human IgG2, lambda, V domains shown)", "VH": "QMQLVESGGGVVQPGRSLRLSCAASGFTFRTYGMHWVRQAPGKGLEWVAVIWYDGSNKHYADSVKGRFTITRDNSKNTLNLQMNSLRAEDTAVYYCARAPQWELVHEAFDIWGQGTMVTVSS", "VL": "SYVLTQPPSVSVAPGQTARITCGGNNLGSKSVHWYQQKPGQAPVLVVYDDSDRPSWIPERFSGSNSGNTATLTISRGEAGDEADYYCQVWDSSSDHVVFGGGTKLTVLG", "notes": "Comparator anti-TSLP antibody with an IgG2 heavy chain constant domain and lambda light chain"}},
  "key": {"[1]": {"molecular_target": "T1, human IL-7 (human, UniProt P13232 26-177)", "T1 construct": "also called hIL-7", "T1 sequence (looked up)": "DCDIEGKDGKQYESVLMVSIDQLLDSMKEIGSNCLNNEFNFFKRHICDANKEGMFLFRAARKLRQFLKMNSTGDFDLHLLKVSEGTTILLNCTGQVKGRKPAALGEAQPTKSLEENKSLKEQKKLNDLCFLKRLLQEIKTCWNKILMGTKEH", "assay": "direct ELISA: plate coated with 2 µg/mL human IL-7, anti-human IgG-HRP, absorbance at 450 nm"}, "[2]": {"molecular_target": "T2, mouse TSLP (mouse, UniProt Q9JIE6 20-140)", "T2 construct": "also called mouse TSLP cytokine", "T2 sequence (looked up)": "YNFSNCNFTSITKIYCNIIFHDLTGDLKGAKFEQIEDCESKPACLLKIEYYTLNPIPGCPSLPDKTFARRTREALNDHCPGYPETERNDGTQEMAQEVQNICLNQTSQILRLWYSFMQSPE", "assay": "direct ELISA: plate coated with 2 µg/mL mouse TSLP, anti-human IgG-HRP, absorbance at 450 nm", "procedure": "The next day, the plates were washed three times with ELISA wash buffer and blocked with ELISA assay diluent B (BioLegend) for one hour at room temperature (RT). […] Antibody binding was assessed using an 8-point titration curve in triplicates (1:3 serial dilution starting at 10 μg/mL). The plate was washed three times with ELISA wash buffer, and HRP-conjugated anti-human IgG-HRP secondary antibody (Jackson ImmunoResearch Laboratories, Inc.) was added to wells at a 1:5000 dilution in 1×ELISA assay diluent. Secondary antibody was added to detect binding of the primary antibody to the antigen. The plate was incubated for 30 minutes at room temperature with the secondary detection antibody, then the plates were washed three times with ELISA wash buffer and developed with TMB substrate solution (Invitrogen, Waltham, MA). The HRP enzymatic reaction was stopped after about 1 minute with acidic stop solution (Invitrogen), and the absorbance at 450 nm on a Biotek plate reader.\nThe EC₅₀ values were calculated using Graphpad Prism 9.2.0 by fitting a four-parameter non-linear regression curve to the average absorbance values of three technical replicates per concentration with three independent experiments. […] N=4 independent experiments with 3 technical replicates. […] N=3 independent experiments with 3 technical replicates."}},
  "data": [
    {"binder": "B1", "values": [
      {"measurement": "binding result", "setting": "[1]", "value": "no binding (tested: about 5 µg/ml)"},
      {"measurement": "binding result", "setting": "[2]", "value": "no binding (tested: about 5 µg/ml)"}
    ]}
  ]
}
